# In the supplement of paper PMC9170038:
# Tested on: MS2 coat protein
# Assay: apparent KD of MS2 coat protein; designed switch direction (-1 OFF switch, 1 ON switch): -1; higher = weaker reporter binding
# In short: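 The buffer was Tris-HCl pH 7.5 with KCl, MgCl2, BSA, DTT, tRNA and Tween-20. In it, SNAP-549-labelled MS2 coat protein was titrated in doubling steps from 0.7 or 1.5 nM to 3 µM over chip-bound RNA switches transcribed by stalled E. coli RNA polymerase on Illumina chips. Apparent KD is the per-design median over clusters of curve fits to normalised fluorescence.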
# [1] = Eterna round: R95, input ligand: microRNA oligo, concentration not stated
# [2] = Eterna round: R95, input ligand: FMN 200 uM
# [3] = Eterna round: R95, input ligand: none
# [4] = input ligand: microRNA oligo, concentration not stated
Sequence,apparent KD of MS2 coat protein [1] [nM],apparent KD of MS2 coat protein (input ligand: FMN 200 uM) [nM],apparent KD of MS2 coat protein (input ligand: none) [nM],also measured
AUUUUAAUAUAGGAUAUCGAAUUUAUUAUUUAACGAGAAGGAUAAACAUGAGGAUCACCCAUGUGGUAUCAUGG [JMFs Solution 2] (puzzle: Exclusion 6),113,,,
"GUUAACGUAGGAUAUUAGUACAUGAACAUGAGGAUCACCCAUGUGAGGUAGGUCUUAGAAUAAGAAGGGCGAAGAA [EX5 #28] (Eterna round: R97, puzzle: Exclusion 5)",,124,124,
"CCAAGCUUAUUCAUUAACAACAUGAGGAUCACCCAUGUAUAGGCAAUUAUGUUUGGGCUCUUUAGUGCUCGUCUUAU [Sensor-V1 #23] (Eterna round: R97, puzzle: Sensor, turn-off variant 1)",,16.1,15.5,
"ACAAGUUUUUAGAUUCUUAACAUGAGGAUCACCCAUGUGCUCGUCUUGUUUGUACUAUCACCGAAGGUGAUAGUACA (Eterna round: R97, puzzle: Sensor, turn-off variant 1)",,69.9,70,
"AAGUCGACGGUGAGGAUAUUAGUUGAACGACAGAUUAAGAAGGUACAUGAGGAUCACCCAUGUGGGUAGCGUUG [Brourd's EX4 #78] (Eterna round: R97, puzzle: Brourd's mod of Exclusion 4)",,73.2,80.9,
"UGUGUGAGACAGGAUAUGCUGGAUGAGAGGCAGGUAGAAGGGUCUACAUGAGGAUCACCCAUGUGGCCGGUUGG [Ex6 #72] (Eterna round: R97, puzzle: Exclusion 6)",,26.9,26.3,
"AUAUUAGCAGGAUAUAUCCGGGAUAACAUGAGGAUCACCCAUGUGACCGCUUGAUAUCCUAUAGAAGGGCUUUAUA [Mod of ViennaUCT 29 - Jieux - Exclusion 5] (Eterna round: R97, puzzle: Exclusion 5)",,35.3,20.6,
"GCCUCGUCAGGAUAUUGGGAAGGCUGUUUUAUGAUUGCCCACAAGAAGGGACAUGAGGAUCACCCAUGUACAUU [Eternabot (L1) Solution 51] (Eterna round: R97, puzzle: Exclusion 4)",,63.3,32.5,
GAAAAGGUAGGAUAUACGAAAAAAAAGGGUAGAAAAAAAACACAUGAGGAUCACCCAUGUAGAAGGACCUAAAG [salish99_ex2_r3_090] (puzzle: Exclusion 2),25.7,,,apparent KD of MS2 coat protein [2]: 56.1 nM; apparent KD of MS2 coat protein [3]: 24.6 nM
"GGCCCUAAGGUCAGAUUCACAAGCUUUUUGCUCGUUUUAACAUGAGGAUCACCCAUGUCUAGUGGAUUUGAUCCUUU [Sensor v3, turn-off variant 2 (MOD of Indiso v.6)] (puzzle: Sensor v3, turn-off variant 2)",25.4,,,apparent KD of MS2 coat protein [2]: 28.6 nM; apparent KD of MS2 coat protein [3]: 34.2 nM
"GUAGCUUCGGCUACUACAAGCUUUUUGCUCGUCUUAUUAACAUGAGGAUCACCCAUGUUAAUGAGACCUCAUGUAUU [Sensor v3 - turn-off variant 2 - 6] (puzzle: Sensor v3, turn-off variant 2)",17,,,apparent KD of MS2 coat protein [2]: 13.4 nM; apparent KD of MS2 coat protein [3]: 10.9 nM
"UUAAUUUGAGGAUAUACUAUUAACCACAUGAGGAUCACCCAUGUUCUAUCAUGUAUAUGUGUAGAAGGCAGAAUGC [JR_Ex5_Sub071] (Eterna round: R97, puzzle: Exclusion 5)",,58.1,50.7,
"UGAUCACAUGAGGAUCACCCAUGUCAGGAUAUCGUCACUGGAGCCUCGGCUCCAGUGACGAGAAGGGACAUAAU [E1/3-A2] (Eterna round: R97, puzzle: Exclusion 1)",,137,253,
"ACUCUUCCUGUUAGGAUAUGCAUCGGGCUUCCGCAGCAGAAGGAACAUGAGGAUCACCCAUGUCAAAUAAAAUC (Eterna round: R97, puzzle: Brourd's mod of Exclusion 4)",,33.1,17.4,
AAGAAGAUAGGAUAUACGAGGAGAGGAGAGAAGAGGUGAGGACAUGAGGAUCACCCAUGUAGAAGGAUCAGGAA [JR_Exclu2_Sub063] (puzzle: Exclusion 2),266,,,apparent KD of MS2 coat protein [2]: 88.7 nM; apparent KD of MS2 coat protein [3]: 176 nM
"UGCCGUUGAGGAUAUACAUAGAAAUAGAUUCAUGUAAAACUACAUGAGGAUCACCCAUGUAGAAGGCAAUGGCU [Mat - Exclusion 2 - JL Mod - D51] (Eterna round: R97, puzzle: Exclusion 2)",,128,23.9,

Sequence,apparent KD of MS2 coat protein [1] [nM],apparent KD of MS2 coat protein (input ligand: FMN 200 uM) [nM],apparent KD of MS2 coat protein (input ligand: none) [nM],also measured
"UUUUUACAUGAGGAUCACCCAUGUGAGGAUAUGAGGGUUAGCUUAAAUGGGCUGACUUUCAGAAGGCACAUGAA [JR_Ex1_Sub059] (Eterna round: R97, puzzle: Exclusion 1)",,280,128,
"CAUGAUUGGCGAGGAUAUUGAUCUAGUUGGCGACGAGAAGGCGCCUGUCACAUGAGGAUCACCCAUGUGAAUCUGGUGGAUGAG [Ex NG1 #88] (Eterna round: R96, puzzle: Exclusion NG 1)",,23,23.5,apparent KD of MS2 coat protein [4]: 18.4 nM
"AUAAUGUAAGGAUAUCAGUCGACUAGCUUCGGCUAGUCGACUGAGAAGGUACAUGAGGAUCACCCAUGUGGUUC [E4/11-A1] (Eterna round: R97, puzzle: Exclusion 4)",,118,985,
AGGUAACAUGAGGAUCACCCAUGUCAGGAUAUCAUAAAGAUUAGAUUAGAGAAGAGGUUGAGAAGGGACUAUAU [Excluse me! 17- Jieux - Exclusion 1] (puzzle: Exclusion 1),41.9,,,
"AACAUGGCAGGAUAUUGAAAAUUGCACUUGAGGAUCACCCAAGUGGUUCUGCGGGCGAAGUAAGAAGGGCCUAAAA [Xeraabi] (Eterna round: R97, puzzle: Exclusion 5)",,232,27.3,
"UCUUAUUGAGGAUAUACAGAUUAUUACAUGAGGAUCACCCAUGUUCUUCAAUGUAUAUAUGUAGAAGGCAGAGGAU [Mat - Exclusion 5 - JL Mod - D12] (Eterna round: R97, puzzle: Exclusion 5)",,217,68.6,
"GUCAGCUCGUGAGGAUAUACAUCACUGCUUCGGCAGUGUAUUAAGAUCACAUGAGGAUCACCCAUGUAGAAGGCACGAGCUGAU [ENG2/2-A2] (Eterna round: R96, puzzle: Exclusion NG 2)",,1020,39,apparent KD of MS2 coat protein [4]: 27.6 nM
ACGCCUCCUGUUAGGAUAUGCAUCGGGCUUCCGCAGCAGAAGGAACAUGAGGAUCACCCAUGUCAAAUAAAAUC [Raleed] (puzzle: Brourd's mod of Exclusion 4),17,,,
"CACGAAUAGUGAGGAUAUGUGCGACAAAGUUGCACAGAAGGCACAUGAGGAUCACCCAUGUAAGCUAGGUCGAAAGACCUAGCG [Omei Exc(NG)1 A] (Eterna round: R96, puzzle: Exclusion NG 1)",,37.4,24.2,apparent KD of MS2 coat protein [4]: 15.3 nM
"UUUAAUUUUUUUUUUUUACAAGCUUUUUGCUCGUCUUAUACAUGAGGAUCACCCAUGUGGAUGGGAGGUAAAUUAUC [JMF 74] (puzzle: Sensor v3, turn-off variant 2)",153,,,apparent KD of MS2 coat protein [2]: 25.4 nM; apparent KD of MS2 coat protein [3]: 25.3 nM
CCCUCACAUGAGGAUCACCCAUGUCAGGAUAUCUCACAUCGGCCUUAGGCCGAUGUCUAGAGAAGGGACGUAUC [Ceonte] (puzzle: Exclusion 1),22.9,,,
"CAAAAGGGAGGAUAUACAUGAGGAUCACCCAUGUACGGUUCACGGGUAGGUGCGUAUAGUAGAAGGCCCGCAUA [Abiace] (Eterna round: R97, puzzle: Exclusion 3)",,172,83.4,
AGUAACAGAGGAUAUACUGUUUUAUGUGUUUAUUAUUUUAAACAUGAGGAUCACCCAUGUAGAAGGCUGAAUAA [JMF 82] (puzzle: Exclusion 2),40.3,,,
"GUAGAGUCAGGAUAUACGAAUAGAUCGAUAGAUCAAUCCAUACAUGAGGAUCACCCAUGUAGAAGGGACUCUAC [Mat - Exclusion 2 - Eli Mod - D15] (Eterna round: R97, puzzle: Exclusion 2)",,26.2,18.8,
"ACUCUUCUAGUUAGGAUAUGCAUCGGGCUUCCGCAGCAGAAGGAACAUGAGGAUCACCCAUGUCAAAUAAAAUC (Eterna round: R97, puzzle: Brourd's mod of Exclusion 4)",,34.8,20.6,
"AAAAGGAUAGGAUAUGCUCUAGGACACUUGAGGAUCACCCAAGUGUCGGCAAGGUCCUAGGCAGAAGGAUCUGGCA [Onordibi] (Eterna round: R97, puzzle: Exclusion 5)",,88.3,29.9,
